The record followed here is PMC8339339 (Redox Biology, 2021).

The term stoichiometry N denotes a count of units in the complex or per binding partner.

This data set concerns the molecule itself. The experiment in a line: non-reducing SDS-PAGE with immunoblot. On the technique in general: Immunoblotting shows a protein as a band on a membrane.

B1: His-tagged human recombinant peroxiredoxin 1 with Cys83 changed to Ser83 (natural protein)
chain: MSSGNAKIGHPAPNFKATAVMPDGQFKDISLSDYKGKYVVFFFYPLDFTFVCPTEIIAFSDRAEEFKKLNCQVIGASVDSHFSHLAWVNTPKKQGGLGPMNIPLVSDPKRTIAQDYGVLKADEGISFRGLFIIDDKGILRQITVNDLPVGRSVDETLRLVQAFQFTDKHGEVCPAGWKPGSDTIKPDVQKSKEYFSKQK
B1: the “stoichiometry N” value stood at 2.
